Data as given in paper doi:10.1101/2021.02.22.432310, “Tetrameric UvrD helicase is located at the E. coli replisome due to frequent replication blocks” (bioRxiv, 2021).

Target: T1, Biotinylated UvrD (E. coli, UniProt P03018 1-720, biotin)
T1 construct: UvrD helicase (DNA helicase II), E. coli; also called E. coli UvrD
T1 sequence (looked up): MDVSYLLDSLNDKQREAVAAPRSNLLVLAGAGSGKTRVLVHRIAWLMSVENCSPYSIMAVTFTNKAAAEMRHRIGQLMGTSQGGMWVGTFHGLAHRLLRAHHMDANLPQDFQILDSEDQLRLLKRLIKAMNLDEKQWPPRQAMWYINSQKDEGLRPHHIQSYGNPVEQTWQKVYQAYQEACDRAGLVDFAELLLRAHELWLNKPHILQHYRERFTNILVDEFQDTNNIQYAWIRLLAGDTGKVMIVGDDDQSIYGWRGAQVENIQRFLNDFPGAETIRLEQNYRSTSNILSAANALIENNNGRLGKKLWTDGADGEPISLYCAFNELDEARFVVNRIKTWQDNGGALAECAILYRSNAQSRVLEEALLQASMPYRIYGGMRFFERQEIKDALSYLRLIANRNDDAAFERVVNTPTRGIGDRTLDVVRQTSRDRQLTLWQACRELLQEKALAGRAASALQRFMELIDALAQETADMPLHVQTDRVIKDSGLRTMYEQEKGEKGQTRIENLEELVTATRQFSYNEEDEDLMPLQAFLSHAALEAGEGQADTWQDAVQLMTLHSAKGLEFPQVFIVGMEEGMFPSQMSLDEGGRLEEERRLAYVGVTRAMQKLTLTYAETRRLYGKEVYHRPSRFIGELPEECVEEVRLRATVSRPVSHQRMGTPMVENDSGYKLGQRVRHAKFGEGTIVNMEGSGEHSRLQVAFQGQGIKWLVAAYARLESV
Assay: SPR; BIAcore T200, 25°C; biotinylated UvrD or Rep immobilised on streptavidin-coated SA chips; Tau or UvrB passed over, ca. 200-4000 nM, 20 µl/min; 10 mM HEPES pH 7.4, 3 mM EDTA, 150 mM NaCl, 10 mM MgCl2, 0.05% Tween 20; single sites binding model
Conditions: both partners purified

B1: UvrB (natural protein, UniProt P0A8F8 1-673, looked up)
chain: MSKPFKLNSAFKPSGDQPEAIRRLEEGLEDGLAHQTLLGVTGSGKTFTIANVIADLQRPTMVLAPNKTLAAQLYGEMKEFFPENAVEYFVSYYDYYQPEAYVPSSDTFIEKDASVNEHIEQMRLSATKAMLERRDVVVVASVSAIYGLGDPDLYLKMMLHLTVGMIIDQRAILRRLAELQYARNDQAFQRGTFRVRGEVIDIFPAESDDIALRVELFDEEVERLSLFDPLTGQIVSTIPRFTIYPKTHYVTPRERIVQAMEEIKEELAARRKVLLENNKLLEEQRLTQRTQFDLEMMNELGYCSGIENYSRFLSGRGPGEPPPTLFDYLPADGLLVVDESHVTIPQIGGMYRGDRARKETLVEYGFRLPSALDNRPLKFEEFEALAPQTIYVSATPGNYELEKSGGDVVDQVVRPTGLLDPIIEVRPVATQVDDLLSEIRQRAAINERVLVTTLTKRMAEDLTEYLEEHGERVRYLHSDIDTVERMEIIRDLRLGEFDVLVGINLLREGLDMPEVSLVAILDADKEGFLRSERSLIQTIGRAARNVNGKAILYGDKITPSMAKAIGETERRREKQQKYNEEHGITPQGLNKKVVDILALGQNIAKTKAKGRGKSRPIVEPDNVPMDMSPKALQQKIHELEGLMMQHAQNLEFEEAAQIRDQLHQLRELFIAAS
Kd: 231 nM
